Experimental findings from patent US9540654B2, “Synthetic brassica-derived chloroplast transit peptides” (Dow AgroSciences LLC, priority 2012, dated 2017) are described below.

The subject of assay [1] is chloroplasts of the tobacco leaf tissue. Kind of assay: Tobacco transient assay, confocal microscopy of TraP-YFP. The conditions noted are these: Agrobacterium-infiltrated tobacco leaves. In kind it is cell-based, Nicotiana benthamiana. From the text: The Trap12 and TraP13 chimeric chloroplast transit peptide sequences were initially tested via a transient in planta assay. Polynucleotide sequences which encode the Trap12 (SEQ ID NO:5) and TraP13 (SEQ ID NO:7) chimeric chloroplast transit peptide sequences were synthesized. A linker sequence (SEQ ID NO:10) was incorporated between the TraP sequence and the yfp coding sequence. The resulting constructs contained two plant transcription units (PTU). The first PTU was comprised of the Arabidopsis thaliana Ubiquitin 10 promoter (AtUbi10 promoter; Callis, et al., (1990) J. Biol. Chem., 265: 12486-12493), Trap yellow fluorescent protein fusion gene (TraP-YFP; US Patent App. 2007/0298412), and Agrobacterium tumefaciens ORF 23 3′ untranslated region (AtuORF23 3′UTR; U.S. Pat. No. 5,428,147). […]
Agrobacterium-infiltrated tobacco leaves were severed from the plant, and placed into a petri-dish with water to prevent dehydration. The infiltrated tobacco leaves were observed under blue light excitation with long-pass filter glasses held in place using a Dark Reader Hand Lamp™ (Clare Chemical Research Co.; Dolores, Colo.) to identify undamaged areas of the leaf that were successfully expressing the YFP reporter proteins. […]

Assay [2] concerns chloroplasts of the maize protoplast. Kind of assay: Maize protoplast transient assay, microscopy of TraP12-YFP. The conditions noted are these: maize protoplasts, 12 hours after transfection. In kind it is cell-based, Zea mays var. B104. From the text: The Trap12 chimeric chloroplast transit peptide-encoding polynucleotide sequence (SEQ ID NO:5) and the linker sequence (SEQ ID NO:10) were cloned upstream of the yellow fluorescent protein gene and incorporated into construct for testing via the maize protoplast transient in planta assay. The resulting construct contained the following plant transcription unit (PTU). The first PTU was comprised of the Zea mays Ubiquitin 1 promoter (ZmUbi1 promoter; Christensen, A., Sharrock R., and Quail P., (1992) Maize polyubiquitin genes: structure, thermal perturbation of expression and transcript splicing, and promoter activity following transfer to protoplasts by electroporation, Plant Molecular Biology, 18:675-689), Trap yellow fluorescent protein fusion gene (TraP12-YFP; US Patent App. 2007/0298412), and Zea mays Peroxidase 5 3′ untranslated region (ZmPer5 3′UTR; U.S. Pat. No. 6,384,207). The construct was confirmed via restriction enzyme digestion and sequencing.
Seed of Zea mays var. B104 were surface sterilized by shaking vigorously in 50% Clorox (3% sodium hypochlorite), containing 2-3 drops of Tween 20, for about 20 minutes. […]
Transfection of 100 to 500 μl of protoplasts (1-5×10^5) was completed by adding the protoplasts to a 2 ml microfuge tube containing about 40 μg of plasmid DNA (pDAB106597), at room temperature. […] Fluorescence of YFP was viewed by microscopy after 12 hours of incubation. […]

For assay [3], the system named is Cry1Ac, Cry1Ca, Cry1F proteins. The assay can be described thus: Protein expression of stacked TraP12 cry1Ac, cry1Ca, cry1F in Arabidopsis (Western blotting, ELISA). Also on record: species or system Arabidopsis thaliana. From the text: The TraP12 chimeric transit peptide was fused to the 5′ end of cry1Ac, cry1Ca, and cry1F gene sequences which were stacked in multi PTU plasmid constructs to determine whether the TraP12 chimeric transit peptide enhanced or reduced expression of the proteins within Arabidopsis.
The constructs listed in Table 35 were assembled using art recognized methods. The constructs were subsequently transformed into Arabidopsis thaliana using the Agrobacterium mediated transformation protocol previously described. Transgenic Arabidopsis plants were obtained and protein expression was determined via Western blotting and ELISA assays.
On the technique in general: A western blot detects proteins with antibodies after separation by electrophoresis.

B1: TraP12: chimeric chloroplast transit peptide SEQ ID NO:6, N-terminus from Brassica napus, C-terminus from Arabidopsis thaliana EPSPS (protein)
chain: MAQSSRICHGVQNPCVIISNLSKSNQNKSPFSVSLKTHQHPRAYPISSSWGLKKSGMTLIGSELRPLKVMSSVS
modifications: TraP12 chloroplast transit peptide
For B1, the “localization of YFP fluorescence signal (microscopy imaging)” value in assay [1] is given as “accumulated within the chloroplasts”. Also, the “localization of YFP fluorescent protein (microscopy imaging)” value in assay [2] was “accumulated within the chloroplasts”. The “translocation of expressed proteins (Western blots)” value in assay [3] is “directed the expressed proteins into the chloroplasts”.
